T1: ST2/IL-33R Fc chimera (Mus musculus, UniProt P14719 27-332)
T1 sequence: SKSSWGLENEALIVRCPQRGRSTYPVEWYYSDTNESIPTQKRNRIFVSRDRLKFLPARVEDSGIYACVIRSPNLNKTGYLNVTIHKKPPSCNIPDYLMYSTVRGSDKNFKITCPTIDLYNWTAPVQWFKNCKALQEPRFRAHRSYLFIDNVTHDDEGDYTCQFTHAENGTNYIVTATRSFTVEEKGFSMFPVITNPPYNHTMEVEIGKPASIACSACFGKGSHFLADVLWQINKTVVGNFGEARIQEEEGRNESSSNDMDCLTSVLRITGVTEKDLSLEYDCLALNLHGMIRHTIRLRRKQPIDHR

B1: B RaptScore round6 2 (ssRNA)
RNA: GGGAGAACUUCGACUUGUAACAAGCUGUUUUGGAACAGCGCAUAACGAACCGUGCAGAGAUCCUC
B2: B RaptScore round7 3 (ssRNA)
RNA: GGGAGAACUUCGACUUGUAACAAGCUGUUUUGGAACAGCGCAUAACGAUUCGUGCAGAGAUCCUC
B3: B RaptScore round6 3 (ssRNA)
RNA: GGGAGAACUUCGACUUGUAACAAGCUGUUUUGGAACAGCGCAUAACGAAACGUGCAGAGAUCCUC
B4: B RaptScore round7 1 (ssRNA)
RNA: GGGAGAACUUCGACUUGUAACAAGCUGUUUUGGAACAGCGCAUAACGAUCCGUGCAGAGAUCCUC

Consider 4 molecules from publication PMC12802916.

This data set has as its target T1, ST2/IL-33R Fc chimera. The data set is described as follows: SPR; SPR (Biacore T200): 295 mM NaCl, 5.4 mM KCl, 0.8 mM MgCl2, 18 mM CaCl2 (printed CaClCl2), 0.05% Tween 20, 20 mM Tris-HCl pH 7.6; temperature not stated. A/C: po. For orientation: SPR reads the build-up and loss of mass on a sensor chip optically.
Consider B1, for which the binding signal is -4.91 % of B Round7 3. The value for B2 was -0.82 % of B Round7 3; that for B3 was -3.28 % of B Round7 3; that for B4 was -4.12 % of B Round7 3.
